Assay results taken from patent publication US7211565 (ESPERION THERAPEUTICS, dated 2007).
Square brackets hold non-standard residues; d marks the D form. Ends that are not written are not given here.

Target: T1, lecithin:cholesterol acyltransferase (LCAT), purified from human plasma (human, UniProt P04180 25-440)
T1 sequence (looked up): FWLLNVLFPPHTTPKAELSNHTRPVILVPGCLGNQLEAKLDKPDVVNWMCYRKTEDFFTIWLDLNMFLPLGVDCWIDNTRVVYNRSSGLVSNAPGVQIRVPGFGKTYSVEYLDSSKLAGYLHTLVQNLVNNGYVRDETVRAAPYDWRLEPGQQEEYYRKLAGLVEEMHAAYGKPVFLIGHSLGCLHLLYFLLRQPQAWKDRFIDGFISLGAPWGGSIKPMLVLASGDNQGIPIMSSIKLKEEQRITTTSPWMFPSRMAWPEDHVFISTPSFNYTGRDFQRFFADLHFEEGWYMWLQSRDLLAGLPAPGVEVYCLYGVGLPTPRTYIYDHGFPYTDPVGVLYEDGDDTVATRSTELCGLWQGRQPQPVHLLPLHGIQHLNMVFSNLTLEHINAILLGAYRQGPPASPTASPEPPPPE
Test: cell-based or functional assay

For [dP]LFRELLNELLEALKQKLK [peptide 55 (SEQ ID NO:55)], the “ACTIVITY (%) LCAT” value was 19%.
